In article doi:10.1101/2021.04.21.440744 (bioRxiv, 2021):

Molecular target: the molecule itself
Assay: […]

B1: Ebola virus transmembrane glycoprotein GP (natural protein)
chain: IPLGVIHNSTLQVSDVDKLVCRDKLSSTNQLRSVGLNLEGNGVATDVPSATKRWGFRSGVPPKVVNYEAGEWAENCYNLEIKKPDGSECLPAAPDGIRGFPRCRYVHKVSGTGPCAGDFAFHKEGAFFLYDRLASTVIYRGTTFAEGVVAFLILPQAKKDFFSSHPLREPVNATEDPSSGYYSTTIRYQATGFGTNETEYLFEVDNLTYVQLESRFTPQFLLQLNETIYTSGKRSNTTGKLIWKVNPEIDTTIGEWAFWETKKNLTRKIRSEELSFTVVSNGAKNISGQSPARTSSDPGTNTTTEDHKIMASENSSAMVQVHSQGREAAVSHLTTLATISTSPQSLTTKPGPDNSTHNTPVYKLDISEATQVEQHHRRTDNDSTASDTPSATTAAGPPKAENTNTSKSTDFLDPATTTSPQNHSETAGNNNTHHQDTGEESASSGKLGLITNTIAGVAGLITGGRRTRREAIVNAQPKCNPNLHYWTTQDEGAAIGLAWIPYFGPAAEGIYIEGLMHNQDGLICGLRQLANETTQALQLFLRATTELRTFSILNRKAIDFLLQRWGGTCHILGPDCCIEPHDWTKNITDKIDQIIHDFVDKTLPDQGDNDNWWTGWRQWIPAGIGVTGVIIAVIALFCICKFVF
- stoichiometry N: 3
